Reference: patent US20230348572A1

Target: RBD (amino acids 340-538 NITN.GPKK) expressed on the surface of MDCK-SIAT1 cells (SARS-CoV-2) (UniProt P0DTC2)

H11-D4-Fc (Fc fusion)
IC50: 28 nM
